Where no end group is shown, it is not given here.

First the molecules themselves.
B5: TβRIIED-E5 fusion protein (receptor)
chain: TIPPEQKLISEEDLLHVQKSVNNDMIVTDNNGAVKFPQLCKFCDVRFSTCDNQKSCMSNCSITSICEKPQEVCVAVWRKNDENITLETVCHDPKLPYHDFILEDAASPKCIMKEKKKPGETFFMCSCSSDECNDNIIFSEEYNTSNPDGGRGGGGSGGGEVSALEKEVSALEKEVSALEKEVSALEKEVSALEKGGHHHHHH
notes: Secreted from HEK 293SF cells; also called TβRII ED-E5 coil; E5 coiled-tagged TβRIIED

For test [1], the target named is T1, Recombinant human TGF-β1 (human, UniProt P01137 279-390).
T1 construct: It was amine coupled to the CM5 chip in SPR and used at 10 pM in the luciferase assay; also called transforming growth factor-β1
T1 sequence (P01137 279-390 limits assumed): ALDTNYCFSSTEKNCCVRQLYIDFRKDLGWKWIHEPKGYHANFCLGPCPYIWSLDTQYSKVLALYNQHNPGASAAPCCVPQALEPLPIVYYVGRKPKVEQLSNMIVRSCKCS
Put plainly: SPR, TGF-β1 coupled, rearrangement model, Kdiss#1. The protocol:
(§1) In FIG. 6A, different concentrations of MP-TβRIIIED-K5 monomeric fusion protein ranging from 62.5 nM to 500 nM were injected over 75 RUs of coupled TGF-β1 and over a control surface. The points are the resonance units obtained after data preparation as described in Example 2, and the solid lines represent the fit when integrating all the curves simultaneously using a rearrangement model. FIGS. 6B-6C show residuals from the fit of the interaction data using a rearrangement model (FIG. 6B) and a simple one-to-one model (FIG. 6C).
(§2) Kinetic experiments were carried out at 25° C. with a flow rate of 100 μL/min. Different concentrations of MP-TβRIIIED-K5 (0 to 500 nM), or MP-TβRIIIED-mixed with equimolar concentrations of […] (0 to 150 nM), were randomly injected in duplicate over a TGF-β1 surface as well as over a control surface (150 μL injections), following which the analyte solution was replaced by buffer for at least 210 seconds. Regeneration of the sensor chip for subsequent injections was accomplished by two pulses of HCl (20 mM, 120 seconds), followed by an EXTRACLEAN procedure performed according to the BIACORE manual.
A general note: In SPR one partner is held on a chip, and binding of the other changes the refractive index at the surface.

The target of test [2] is T1, Recombinant human TGF-β1. In words: SPR, TGF-β1 coupled, simple model, Kd 1; simple model, Kd 1. Here is the method:
as §1
(§3) Surface plasmon resonance studies were performed using a BIACORE™ biosensor (see for example U.S. Pat. No. 6,165,335 and related patents) using a running buffer composed of HBS; 20 mM Hepes (pH 7.4),150 mM NaCl, 3.4 mM EDTA, and 0.05% Tween20 for diluting all the test analytes.

The target of test [3] is T1, Recombinant human TGF-β1. In words: SPR, TGF-β1 coupled, rearrangement model, Kdapp. The protocol: as §1, §2
In test [4] the target is T1, Recombinant human TGF-β1. Put plainly: SPR, TGF-β1 coupled, simple model, kass#1. Here is the method: as §1, §2
Test [5] has as its target T1, Recombinant human TGF-β1. Put plainly: SPR, TGF-β1 coupled, simple model, Kdiss#1. Here is the method: as §1, §3
The target in test [6] is T1, Recombinant human TGF-β1. In words: SPR, TGF-β1 coupled, rearrangement model, rearrangement step. The protocol:
as §1, §3

Test [7] addresses T2, Recombinant human TβRIIED, untagged (human, UniProt P37173 23-166).
T2 construct: extracellular domain; Gift from Dr. Hinck; also called untagged hTβRII ED; untagged TβRIIED
In words: SPR (BIACORE), untagged hTβRII ED (about 120 RU left) captured on the coupled anti hTGF-βRII antibody, MP-TβRIIIED-K5 injected. The protocol:
This study is also described in Example 2.
A solution of 0.1 M ethanolamine-HCl (pH 8.5, 35 μL) was then used to block the remaining activated carboxyl groups.
Three studies were then performed at a flow rate of 5 μL/min: [0183] […] [0184] […] [0185]

In test [8] the target is T1, Recombinant human TGF-β1. In words: SPR, TGF-β1 coupled, rearrangement model, Kd 1 (initial binding step). The protocol: as §1, §3
Test [9] has as its target T1, Recombinant human TGF-β1. In words: SPR, TGF-β1 coupled, rearrangement model, kass#1. Here is the method: as §1, §3
The target of test [10] is T1, Recombinant human TGF-β1. Put plainly: SPR, TGF-β1 coupled, simple model, Kdapp. Here is the method: as §1, §3
Test [11] concerns the target T1, Recombinant human TGF-β1. In words: cell-based or functional assay.
Test [12] deals with T1, Recombinant human TGF-β1. Put plainly: SPR, TGF-β1 coupled, simple one-to-one model (poor fit), Kdiss#1.
Test [13] deals with T1, Recombinant human TGF-β1. Put plainly: SPR, TGF-β1 coupled, avidity model, second step; unit from footnote **. The protocol:
(§4) Regeneration of the sensor chip for subsequent injections was accomplished by two pulses of HCl (20 mM, 120 seconds), followed by an EXTRACLEAN procedure performed according to the BIACORE manual.

Test [14] deals with T1, Recombinant human TGF-β1. Put plainly: SPR, TGF-β1 coupled, rearrangement model (best fit), Kdiss#1.
The target of test [15] is T1, Recombinant human TGF-β1. Put plainly: SPR, TGF-β1 coupled, avidity model, Kdiss#1. The protocol: (§5) Since TGF-β1 is a covalent dimer, and since TβRIIED was artificially dimerized through coiled-coil interactions, two scenarios of binding were evaluated. […] This corresponds to an overall one to one (dimer-to-dimer) stoichiometry model with a rearrangement step after the initial binding (rearrangement model).

The target of test [16] is T1, Recombinant human TGF-β1. Put plainly: SPR, TGF-β1 coupled, rearrangement model, Kd 1 (initial binding step). The protocol: as §5
This is another data set of the same source.

Test [17] addresses T1, Recombinant human TGF-β1. Put plainly: SPR, TGF-β1 coupled, simple one-to-one model (poor fit), Kd 1. Here is the method:
as §4

Test [18] has as its target T1, Recombinant human TGF-β1. In words: SPR, TGF-β1 coupled, rearrangement model, rearrangement step. Here is the method:
as §5
This is another data set of the same source.

The target in test [19] is T1, Recombinant human TGF-β1. Put plainly: SPR, TGF-β1 coupled, simple one-to-one model (poor fit), Kdapp. Here is the method:
as §4

In test [20] the target is T1, Recombinant human TGF-β1. Put plainly: SPR, TGF-β1 coupled, rearrangement model (best fit), kass#1. Here is the method:
as §5

Test [21] concerns the target T1, Recombinant human TGF-β1. Put plainly: SPR, TGF-β1 coupled, simple one-to-one model (poor fit), kass#1.
Test [22] has as its target T1, Recombinant human TGF-β1. In words: SPR, TGF-β1 coupled, avidity model, Kd 1. The protocol:
as §4

Test [23] deals with T1, Recombinant human TGF-β1. In words: SPR, TGF-β1 coupled, rearrangement model (best fit), Kdapp.
Test [24] addresses T1, Recombinant human TGF-β1. In words: SPR, TGF-β1 coupled, avidity model, kass#1. Here is the method: as §5
In test [25] the target is B5. Put plainly: inferred from SPR of TβRIIED-E5 (300 nM) preincubated with K5ox over coupled TGF-β1. The source says: (§6) In another embodiment of the invention, an alternative approach to achieving coiled-coil induced dimerization of TβRIIED is provided. In this embodiment, a dimeric coil is used to act as an adaptor to bridge two proteins.
(§7) Regeneration of the sensor chip was done as described above.

Test [26] has as its target T1, Recombinant human TGF-β1. In words: SPR (BIACORE), TGF-β1 coupled, 300 nM TβRIIED-E5 alone; the pair is assigned by the fast wash-off that paragraph 133 gives for sensorgrams 1 and 4.
Excerpt: as §6, §7

T2 sequence (P37173 23-166): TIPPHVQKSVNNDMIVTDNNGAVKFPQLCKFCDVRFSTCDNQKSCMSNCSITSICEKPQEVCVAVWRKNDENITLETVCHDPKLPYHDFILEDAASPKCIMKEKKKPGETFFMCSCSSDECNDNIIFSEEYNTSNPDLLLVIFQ

B1: MP-TβRIIIED-K5 fusion protein (receptor)
chain: GPEQKLISEEDLRQLRNPSGFQGQLDGNATFNMELYNTDLFLVPSPGVFSVAENEHVYVEVSVTKADQDLGFAIQTCFLSPYSNPDRMSDYTIIENICPKDDSVKFYSSKRVHFPIPHAEVDKKRFSFLFKSVFNTSLLFLHCELTLCSRKKGSLKLPRCVTPDDACTSLDATMIWTMMQNKKTFTKPLAVVLQVDYKENVPSTKDSSPIPPPPPQIFHGGRGGGGSGGGKVSALKEKVSALKEKVSALKEKVSALKEKVSALKEGGHHHHHH
notes: Secreted from HEK 293SF cells; also called Cterm-TβRIIIED-K5coil; K5 tagged TβRIIIED
In the case of B1, the koff amounted to 0.044 s⁻¹ with Recombinant human TGF-β1 [1] and 0.0025 s⁻¹ in the test with Recombinant human TGF-β1 [5]. Also, the Kd with Recombinant human TGF-β1 [2] is 49 nM; with Recombinant human TGF-β1 [3], 86 nM; with Recombinant human TGF-β1 [8], 670 nM; with Recombinant human TGF-β1 [10], 48 nM. In addition, the kon with Recombinant human TGF-β1 [4] turned out to be 50000 M⁻¹ s⁻¹; with Recombinant human TGF-β1 [9] it was 64000 M⁻¹ s⁻¹. The “kd 2 (no unit)” value with Recombinant human TGF-β1 [6] stood at 0.15 no unit. Further, the binding result in test [7] is “no binding (tested: 200 nM)”.

B2: TβRIIED-E5 dimerized by K5ox (two TβRIIED-E5 to one K5ox) (receptor)
chain: TIPPEQKLISEEDLLHVQKSVNNDMIVTDNNGAVKFPQLCKFCDVRFSTCDNQKSCMSNCSITSICEKPQEVCVAVWRKNDENITLETVCHDPKLPYHDFILEDAASPKCIMKEKKKPGETFFMCSCSSDECNDNIIFSEEYNTSNPDGGRGGGGSGGGEVSALEKEVSALEKEVSALEKEVSALEKEVSALEKGGHHHHHH
peptide: CGGKVSALKEKVSALKEKVSALKEKVSALKEKVSALKE
modifications: N-terminal Cys oxidized, joining the two chains as a K5 covalent dimer
On to B2, for which, in the test with Recombinant human TGF-β1 [11], the “IC50 for inhibition of signaling (luciferase, MLEC cells)” value is around 30 nM and the “IC50 of TβRIIED-E5 in the presence of 150 nM K5ox (luciferase, MLEC cells)” value came to 53 nM.

B3: TβRIIED-K5/TβRIIED-E5 coiled-coil induced dimer (receptor)
chain 1: TIPPEQKLISEEDLLHVQKSVNNDMIVTDNNGAVKFPQLCKFCDVRFSTCDNQKSCMSNCSITSICEKPQEVCVAVWRKNDENITLETVCHDPKLPYHDFILEDAASPKCIMKEKKKPGETFFMCSCSSDECNDNIIFSEEYNTSNPDGGRGGGGSGGGKVSALKEKVSALKEKVSALKEKVSALKEKVSALKEGGHHHHHH
chain 2: TIPPEQKLISEEDLLHVQKSVNNDMIVTDNNGAVKFPQLCKFCDVRFSTCDNQKSCMSNCSITSICEKPQEVCVAVWRKNDENITLETVCHDPKLPYHDFILEDAASPKCIMKEKKKPGETFFMCSCSSDECNDNIIFSEEYNTSNPDGGRGGGGSGGGEVSALEKEVSALEKEVSALEKEVSALEKEVSALEKGGHHHHHH
notes: Non-covalent dimer made by preincubating equimolar TβRIIED-K5 and TβRIIED-E5; also called TβRIIED-E5/TβRIIED-K5 dimer
In the case of B3, the koff is 0.00021 s⁻¹ in the test with Recombinant human TGF-β1 [12], 0.11 s⁻¹ in the test with Recombinant human TGF-β1 [14] and 0.071 s⁻¹ in the test with Recombinant human TGF-β1 [15]. Besides, in the test with Recombinant human TGF-β1 [13], the “Kd 2” value came out at 370 nM. Also, the Kd with Recombinant human TGF-β1 [16] is 92 nM; with Recombinant human TGF-β1 [17], 0.33 nM; in the test with Recombinant human TGF-β1 [19], 0.33 nM; with Recombinant human TGF-β1 [22], 330 nM; with Recombinant human TGF-β1 [23], 1.5 nM. The “Kd 2 (no unit)” value with Recombinant human TGF-β1 [18] was determined as 0.0166 no unit. Further, the association rate constant (kon) stood at 1.19e+06 M⁻¹ s⁻¹ in the test with Recombinant human TGF-β1 [20], 640000 M⁻¹ s⁻¹ in the test with Recombinant human TGF-β1 [21] and 213000 M⁻¹ s⁻¹ with Recombinant human TGF-β1 [24].

B4: K5ox (peptide)
peptide: CGGKVSALKEKVSALKEKVSALKEKVSALKEKVSALKE
modifications: also: covalent homodimer via oxidized N-terminal Cys
notes: Synthetic peptide oxidized in ammonium bicarbonate at pH 8.0; also called oxidized CGGK5 coil; K5 covalent dimer
For the molecule B4, the binding result in [25] was “binds”.
Regarding B5, the binding result in the test with Recombinant human TGF-β1 [26] was “binds”.

In general, koff refers to the rate constant with which the complex falls apart. In general, kon refers to a measure of how fast the partners come together.

For the origin of these results see patent US20070154994A1 (NATIONAL RESEARCH COUNCIL OF CANADA, published 2007).
